Data from patent US6887705B1, “Tyrosine phosphorylated cleavage furrow-associated proteins (PSTPIPs)” (Genentech, Inc., priority 1997, dated 2005).
Changes are numbered by the printed parent chain.

B1: tryptophan at position 205: PST PIP with tryptophan 205 mutated to alanine (protein)
chain: MMAQLQFRDAFWCRDFTAHTGYEVLLQRLLDGRKMCKDVEELLRQRAQAEERYGKELVQIARKAGGQTEMNSLRTSFDSLKQQTENVGSAHIQLALALREELRSLEEFRERQKEQRKKYEAIMDRVQKSKLSLYKKTMESKKAYDQKCRDADDAEQAFERVSANGHQKQVEKSQNKAKQCKESATEAERVYRQNIEQLERARTEAEQEHRTTCEAFQLQEFDRLTILRNALWVHCNQLSMQCVKDDELYEEVRLTLEGCDVEGDINGFIQSKSTGREPPAPVPYQNYYDREVTPLIGSPSIQPSCGVIKRFSGLLHGSPKTTPSAPAASTETLTPTPERNELVYASIEVQATQGNLNSSAQDYRALYDYTAQNSDELDISAGDILAVILEGEDGWWTVERNGQRGFVPGSYLEKL
modifications: Mus Musculus
notes: PST PIP with tryptophan 205 mutated to alanine
B2: I122MD: PST PIP clustered alanine substitution starting at I122 (protein)
chain: MMAQLQFRDAFWCRDFTAHTGYEVLLQRLLDGRKMCKDVEELLRQRAQAEERYGKELVQIARKAGGQTEMNSLRTSFDSLKQQTENVGSAHIQLALALREELRSLEEFRERQKEQRKKYEAAAARVQKSKLSLYKKTMESKKAYDQKCRDADDAEQAFERVSANGHQKQVEKSQNKAKQCKESATEAERVYRQNIEQLERARTEWEQEHRTTCEAFQLQEFDRLTILRNALWVHCNQLSMQCVKDDELYEEVRLTLEGCDVEGDINGFIQSKSTGREPPAPVPYQNYYDREVTPLIGSPSIQPSCGVIKRFSGLLHGSPKTTPSAPAASTETLTPTPERNELVYASIEVQATQGNLNSSAQDYRALYDYTAQNSDELDISAGDILAVILEGEDGWWTVERNGQRGFVPGSYLEKLDYKDDDDK
B3: E159RV: PST PIP clustered alanine substitution starting at E159 (protein)
chain: B2 chain with A122I, A123M, A124D, E159A, R160A, V161A
B4: D145QK: PST PIP clustered alanine substitution starting at D145 (protein)
chain: B2 chain with A122I, A123M, A124D, D145A, Q146A, K147A
B5: Q169VE: PST PIP clustered alanine substitution starting at Q169 (protein)
chain: B2 chain with A122I, A123M, A124D, Q169A, V170A, E171A
B6: L133YK: PST PIP clustered alanine substitution starting at L133 (protein)
chain: B2 chain with A122I, A123M, A124D, L133A, Y134A, K135A

Target: T1, PTP HSCF (Mus musculus, UniProt Q61152)
T1 construct: the PST (and C-terminal homolog) of PTP HSCF (amino acids 304-453); made in house; host or cells: E. coli DH5-alpha
T1 sequence (Q61152 304-453): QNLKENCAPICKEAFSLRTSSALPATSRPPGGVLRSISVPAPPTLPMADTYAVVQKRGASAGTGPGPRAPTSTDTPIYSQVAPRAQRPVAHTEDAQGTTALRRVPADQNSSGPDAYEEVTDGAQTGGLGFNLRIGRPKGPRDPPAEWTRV
Assay: In vitro GST pull-down binding of PST PIP forms to PTP HSCF
Settings: in vitro
Description: The binding was carried out according to the method of Wong and Johnson (Wong et al., J. Biol. Chem. 271(35):20981-20984 (1996)). Briefly, 1 μg of plasmid with either the PSTPIP protein or PTP HSCF under the control of the Sp6 promoter was in vitro transcribed/translated using the Promega™ TnT Rabbit Reticulocyte™ system. Samples were diluted in 50 mM HEPES, pH 7.2, 1% triton X 100, 10% glycerol, 100 mM NaCl, 5 mM EDTA and 2 μg/ml each of leupeptin, pepstatin, aprotinin, and PMSF. […] This was reacted for 1 hour at 4° C. and then the resin washed 6 times in HEPES/Triton binding buffer before SDS gel electrophoresis. The peptides were synthesized on an automated Milligen 9050 Peptide Synthesizer using standard solid phase chemistry with FMOC protected amino acids on a p-alkoxybenzyl alcohol resin. Dried peptides were re-suspended in the HEPES/Triton Binding buffer at a concentration of 10 mg/ml. Peptide inhibition was performed by adding the peptide first to the in vitro translation product and then the GST-fusion followed by the GSH-Sepharose. The binding/washing steps were as previously described. The peptides synthesized and the PTPs they were derived from were: • PXXP-HSCF: 432[…]451 (PTP HSCF) (SEQ ID NO:20), • PXXP-PEP: 782GFGNRFSKPKGPRNPPSAW800 (PTP PEP) (SEQ ID NO:21), • PXXP-PEST: 761[…]780 (PTP PEST) SEQ ID NO:22), • PXXP-CONTROL: 334[…]353 (PTP HSCF) (SEQ ID NO:23).
In vitro binding analyses between various PTP HSCF and PST PIP constructs were performed as previously described (Spencer et al, (1997), supra). Briefly, plasmids were transcribed and translated in vitro using the TnT Rabbit Reticulocyte Lysate System (Promega). Samples were diluted in 50 mM HEPES, pH 7.2, 1% triton X-100, 10% glycerol, 100 mM NaCl, and 2 μg/ml each of leupeptin, pepstatin, aprotinin and PMSF (lysis buffer). Samples were than reacted with GST fusion proteins at various concentrations, and the bound proteins were centrifuged using glutathione-sepharose beads and analyzed on SDS polyacrylamide gels. C-terminally-derived peptide inhibition studies were performed by incubating the GST fusion protein binding reactions in the presence of 10 μg/ml of the indicated peptides. Peptides were produced by FMOC-protected amino acids as previously described (Spencer et al, (1997), supra). In vivo interactions between various forms of PTP HSCF and PST PIP were also performed as previously described (Spencer et al, (1997), supra). Briefly, COS cells were transfected with various constructs, and after 48 hours, lysates were prepared and immunoprecipitated with antibodies to either the FLAG epitope contained at the C-terminus of PST PIP or an HA epitope contained at the N-terminus of PTP HSCF. The resultant blots were probed with anti-FLAG to detect PST PIP, anti-HA to detect PTP HSCF or anti-phosphotyrosine to detect levels of this modified amino acid in each protein.

Molecule | binding of in vitro translated PST PIP forms to GST fusion of C-terminal 149 amino acids of PTP HSCF
amino acids 1-264 of the coiled coil domain: form of PST PIP containing amino acids 1-264 | binding of PTP HSCF could be obtained
B1 | no effect on PTP HSCF binding was observed
B2 | either no or a minor change in the binding activity
B3 | either no or a minor change in the binding activity
B4 | either no or a minor change in the binding activity
B5 | either no or a minor change in the binding activity
B6 | either no or a minor change in the binding activity

Same assay, conditions: ~1 microgram per ml GST fusion protein

Molecule | precipitation of in vitro translated PTP HSCF by GST fusions of PSTPIP or its domains
SH3 region: GST fusion containing the SH3 domain of PSTPIP | not the SH3 region
coiled coil domain: GST fusion containing the coiled coil domain of PSTPIP | mediated by the coiled coil domain
